Reference: the supplement of paper PMC9170038

Tested on: MS2 coat protein
Test: apparent KD of MS2 coat protein; designed switch direction (-1 OFF switch, 1 ON switch): 1; higher = weaker reporter binding
Method in brief: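 Designed RNA switches sharing common flanks were transcribed on Illumina chips by stalled E. coli RNA polymerase. They were titrated with SNAP-549-labelled MS2 coat protein, from 0.7 or 1.5 nM doubling to 3 µM, in Tris-HCl pH 7.5 buffer with KCl, MgCl2, BSA, DTT, tRNA and Tween-20. Titrations ran without input, with 200 uM small-molecule ligand, or with an oligonucleotide input. The apparent KD of each design is the median over its clusters, after curve-fitting of normalised cluster fluorescence.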

[1] = input ligand: microRNA oligo, concentration not stated
[2] = Eterna round: R95, input ligand: FMN 200 uM
[3] = Eterna round: R95, input ligand: microRNA oligo, concentration not stated
[4] = Eterna round: R95, input ligand: none

Sequence	apparent KD of MS2 coat protein (input ligand: FMN 200 uM)	apparent KD of MS2 coat protein [1]	apparent KD of MS2 coat protein (input ligand: none)	apparent KD of MS2 coat protein [2]	apparent KD of MS2 coat protein [3]	apparent KD of MS2 coat protein [4]
GUAGCAUACCGAGGAUAUUCAUAUUAACAUGAGGAUCACCCAUGUUGGCCACAUUAGUGGCCUUGGGAGAAGGCGGAAUGCUAC [Xeonanis - 20 Mod38] (Eterna round: R96, puzzle: Same State NG 2)	0.0196 µM	0.107 µM	0.14 µM	–	–	–
GUGGAGGGUUGAGGAUAUUGAAUACAUAUGUUUAACAUGAGGAUCACCCAUGUGGGUUGCGGUAUCGAGAAGGUAAGUUGCUGG [salish99_SSNG2_r04_038] (Eterna round: R96, puzzle: Same State NG 2)	0.105 µM	0.0942 µM	0.0893 µM	–	–	–
GUAGCAUACCGAGGAUAUUCAUAUACAUGAGGAUCACCCAUGUUUAUAGGCCGAUUACGGCCUUGGGAGAAGGCGGAAUGCUAC [Xeonanis - 20 Mod25] (Eterna round: R96, puzzle: Same State NG 2)	0.0117 µM	0.00952 µM	0.0176 µM	–	–	–
GCCCAUAGUAUAUGGAUACAAGCUUUUUGACAUGAGGAUCACCCAUGUACUCGUCUUAUGUGCAGUCCGUAGACUGC [JL-shm-2.20 Brourd mod] (puzzle: Sensor for hsa-mir-208a)	–	–	–	0.0268 µM	0.0158 µM	–
GUGGUCAGACAUGAGGAUCACCCAUGUGGAAUAAAUAAGGGAAAGGAUAUAAAAUAUAGGAUAUAUUAGAAGGUUCGGUUGGUG (Eterna round: R96, puzzle: Same State NG 3)	0.131 µM	0.0839 µM	0.0896 µM	–	–	–
CCUUAACAGUGAGGAUAUCGUUGCGAUAAGUGACGAGAAGGCACUCAUGUGAAAUAAACAUACAUGAGGAUCACCCAUGUUGUG [Omei SS(NG)1 Bv5] (Eterna round: R96, puzzle: Same State NG 1)	0.0344 µM	0.04 µM	0.0442 µM	–	–	–
GGUAUCUCCAGUGAGGAUAUGCGGCGUAGAACAUGAGGAUCACCCAUGUCCUUCGAAUGGGUUACGCAGAAGGCACUACGGUACC [Robot Arm] (puzzle: Same State 2)	–	–	–	–	0.0301 µM	–
UUGCUCGUGUGAGGAUAUGCAGCCGUUUCGGCUGCAGAAGGUACUAUAAUACAUGAGGAUCACCCAUGUCUCUGUUGUUUAGUG [salish99_SSNG1_r04_928] (Eterna round: R96, puzzle: Same State NG 1)	0.034 µM	0.0278 µM	0.0392 µM	–	–	–
AUUAUUUAUGCAGGAUAUGAUUAACAUGAGGAUCACCCAUGUGGUGUUGUGAGUAAGGAGAGUGAUCAGAAGGGCAUUUUUGUU [JMF's solution 53] (Eterna round: R96, puzzle: Same State NG 2)	0.992 µM	0.438 µM	0.657 µM	–	–	–
GCGAGCGUACUUGCAACAUGAGGAUCACCCAUGUUAACUGGACAGGAUAUGGUACCGUUUCGGUACCAGAAGGGUUCCUCAUUG [JL SSNG3 3.63] (Eterna round: R96, puzzle: Same State NG 3)	0.319 µM	0.0347 µM	0.437 µM	–	–	–
AACAAUCUAUUUGAGGAUAUCAUGAAAUAAACAUGAGGAUCACCCAUGUGCAGGAAAACUGCAUAUGAGAAGGCAGAUAGAUUGA [salish99_ss2_r3_025] (puzzle: Same State 2)	–	–	–	0.0254 µM	0.0302 µM	0.0241 µM
CUACGAGCGCCACAGGAUAUACUGAGACUCACAUGAGGAUCACCCAUGUCCAAUUCUCCCAAAUAGUAGAAGGGUGACGCGCUCG [Maenve] (puzzle: Same State 2)	–	–	–	0.0371 µM	0.48 µM	0.95 µM
ACAAGCUUUUCUGCAUCGAAAGGUUGAUAACAUGAGGAUCACCCAUGUAAAUAUGAAAACGAUGCUCCUCGUCUUAU [JR_SHM208A_Sub095] (puzzle: Sensor for hsa-mir-208a)	–	–	–	0.0373 µM	0.0151 µM	0.0447 µM
UAGGAACAUGAGGAUCACCCAUGUACCUCAUAUGGAGAAACACAGGAUAUGCUCAGCGAAAGAGAGCAGAAGGGUGAAGAGAGG [Default title] (Eterna round: R96, puzzle: Same State NG 3)	0.0236 µM	0.0276 µM	0.0316 µM	–	–	–
GAGUAGUUAAAAGGAUAUUGAUUAUUGUAGGAUCAAGAAGGUUUUAACAUGAGGAUCACCCAUGUAGGACUAUUCCUGUGAAAA [Parity 92 - Jieux - Same State NG 1] (Eterna round: R96, puzzle: Same State NG 1)	–	0.0109 µM	–	–	–	–
GGCAGGUGCAGGCUUGCUUGCACCUGGAAACAUGAGGAUCACCCAUGUUUGGGACAAGCUUUGCUCCUCGUCUUGUC [JL ViennaUCT Isusreraar mod 2] (Eterna round: R96, puzzle: Sensor for hsa-mir-208a)	0.0384 µM	0.0392 µM	0.0428 µM	–	–	–
